From paper PMC7430649 come the findings set out here.

For this series, the system named is Bad (bacterial DNA2-like helicase-nuclease), wild type (Geobacillus stearothermophilus 10 (DSM 13240)). The series is described as follows: ATPase stimulation titration. The settings on record: saturating ATP; Buffers of the ATPase and tweezers assays not given in the material; tweezers at room temperature, low free Mg2+; helicase assays 20 mM Tris-HCl pH 7.5, 2 mM ….

In the case of CAAGCGGGCGCCTCCCG [ODN1 (17mer ssDNA)], the K half (uM nucleotides) came out at 1.6.
